From paper PMC3827151, “Methionine Mutations of Outer Membrane Protein X Influence Structural Stability and Beta-Barrel Unfolding” (PLoS ONE, 2013)

B1: Outer membrane protein X H100N (OmpX^HN) (natural protein, E. coli, UniProt P0A917 24-171, looked up)
chain: ATSTVTGGYAQSDAQGQMNKMGGFNLKYRYEEDNSPLGVIGSFTYTEKSRTASSGDYNKNQYYGITAGPAYRINDWASIYGVVGVGYGKFQTTEYPTYKNDTSDYGFSYGAGLQFNPMENVALDFSYEQSRIRSVDVGTWIAGVGYRF
notes: also called OmpX H100N
B2: Outer membrane protein X H100N:M18L:M21L:M118L quadruple mutant (OmpX^M) (natural protein, E. coli, UniProt P0A917 24-171, looked up)
chain: ATSTVTGGYAQSDAQGQLNKLGGFNLKYRYEEDNSPLGVIGSFTYTEKSRTASSGDYNKNQYYGITAGPAYRINDWASIYGVVGVGYGKFQTTEYPTYKNDTSDYGFSYGAGLQFNPLENVALDFSYEQSRIRSVDVGTWIAGVGYRF
notes: the 'initiator' Met is kept; PDB 1QJ8 is the parent OmpX^HN; also called Met-less construct

Target: the molecule itself
Assay: SDS-PAGE of unboiled samples (gel mobility shift); protein in 8 M urea diluted 20-fold into LDAO, DPC, 60PC or DMPC in 20 mM Tris-HCl pH 9.5, slow folding at 40°C for 3 h; samples not centrifuged; bands of folded and unfolded monomer and dimer

Protein | binding result
B1 | binds
B2 | binds
